These results are taken from publication PMC7266993 (2020).

B1: FLAG epitope-tagged STAG1, wild type (transient, HEK293) [human] / RAD21 (endogenous, HEK293) [human (endogenous in HEK293)] (parent complex)
chain 1: MITSELPVLQDSTNETTAHSDAGSELEETEVKGKRKRGRPGRPPSTNKKPRKSPGEKSRIEAGIRGAGRGRANGHPQQNGEGEPVTLFEVVKLGKSAMQSVVDDWIESYKQDRDIALLDLINFFIQCSGCRGTVRIEMFRNMQNAEIIRKMTEEFDEDSGDYPLTMPGPQWKKFRSNFCEFIGVLIRQCQYSIIYDEYMMDTVISLLTGLSDSQVRAFRHTSTLAAMKLMTALVNVALNLSIHQDNTQRQYEAERNKMIGKRANERLELLLQKRKELQENQDEIENMMNSIFKGIFVHRYRDAIAEIRAICIEEIGVWMKMYSDAFLNDSYLKYVGWTLHDRQGEVRLKCLKALQSLYTNRELFPKLELFTNRFKDRIVSMTLDKEYDVAVEAIRLVTLILHGSEEALSNEDCENVYHLVYSAHRPVAVAAGEFLHKKLFSRHDPQAEEALAKRRGRNSPNGNLIRMLVLFFLESELHEHAAYLVDSLWESSQELLKDWECMTELLLEEPVQGEEAMSDRQESALIELMVCTIRQAAEAHPPVGRGTGKRVLTAKERKTQIDDRNKLTEHFIITLPMLLSKYSADAEKVANLLQIPQYFDLEIYSTGRMEKHLDALLKQIKFVVEKHVESDVLEACSKTYSILCSEEYTIQNRVDIARSQLIDEFVDRFNHSVEDLLQEGEEADDDDIYNVLSTLKRLTSFHNAHDLTKWDLFGNCYRLLKTGIEHGAMPEQIVVQALQCSHYSILWQLVKITDGSPSKEDLLVLRKTVKSFLAVCQQCLSNVNTPVKEQAFMLLCDLLMIFSHQLMTGGREGLQPLVFNPDTGLQSELLSFVMDHVFIDQDEENQSMEGDEEDEANKIEALHKRRNLLAAFSKLIIYDIVDMHAAADIFKHYMKYYNDYGDIIKETLSKTRQIDKIQCAKTLILSLQQLFNELVQEQGPNLDRTSAHVSGIKELARRFALTFGLDQIKTREAVATLHKDGIEFAFKYQNQKGQEYPPPNLAFLEVLSEFSSKLLRQDKKTVHSYLEKFLTEQMMERREDVWLPLISYRNSLVTGGEDDRMSVNSGSSSSKTSSVRNKKGRPPLHKKRVEDESLDNTWLNRTDTMIQTPGPLPAPQLTSTVLRENSRPMGDQIQEPESEHGSEPDFLHNPQMQISWLGQPKLEDLNRKDRTGMNYMKVRTGVRHAVRGLMEEDAEPIFEDVMMSSRSQLEDMNEEFEDTMVIDLPPSRNRRERAELRPDFFDSAAIIEDDSGFGMPMF
chain 2: MFYAHFVLSKRGPLAKIWLAAHWDKKLTKAHVFECNLESSVESIISPKVKMALRTSGHLLLGVVRIYHRKAKYLLADCNEAFIKIKMAFRPGVVDLPEENREAAYNAITLPEEFHDFDQPLPDLDDIDVAQQFSLNQSRVEEITMREEVGNISILQENDFGDFGMDDREIMREGSAFEDDDMLVSTTTSNLLLESEQSTSNLNEKINHLEYEDQYKDDNFGEGNDGGILDDKLISNNDGGIFDDPPALSEAGVMLPEQPAHDDMDEDDNVSMGGPDSPDSVDPVEPMPTMTDQTTLVPNEEEAFALEPIDITVKETKAKRKRKLIVDSVKELDSKTIRAQLSDYSDIVTTLDLAPPTKKLMMWKETGGVEKLFSLPAQPLWNNRLLKLFTRCLTPLVPEDLRKRRKGGEADNLDEFLKEFENPEVPREDQQQQHQQRDVIDEPIIEEPSRLQESVMEASRTNIDESAMPPPPPQGVKRKAGQIDPEPVMPPQQVEQMEIPPVELPPEEPPNICQLIPELELLPEKEKEKEKEKEDDEEEEDEDASGGDQDQEERRWNKRTQQMLHGLQRALAKTGAESISLLELCRNTNRKQAAAKFYSFLVLKKQQAIELTQEEPYSDIIATPGPRFHII

This experiment covers variants of B1. Briefly: co-immunoprecipitation (anti-FLAG IP), capillary immunodetection assay; HEK293; read off a plot.
As for chain 1 D797A, the ratio to parent was around 0.06.
chain 1 D797K: the ratio to parent is around 0.08.
